From paper PMC6624300, “Structure-based mechanism for activation of the AAA+ GTPase McrB by the endonuclease McrC” (Nature Communications, 2019)
Each block holds one molecule with its values, some of them ahead of it.

B2: McrC endonuclease (enzyme, Escherichia coli, UniProt P15006 1-348, looked up)
chain: MEQPVIPVRNIYYMLTYAWGYLQEIKQANLEAIPGNNLLDILGYVLNKGVLQLSRRGLELDYNPNTEIIPGIKGRIEFAKTIRGFHLNHGKTVSTFDMLNEDTLANRIIKSTLAILIKHEKLNSTIRDEARSLYRKLPGISTLHLTPQHFSYLNGGKNTRYYKFVISVCKFIVNNSIPGQNKGHYRFYDFERNEKEMSLLYQKFLYEFCRRELTSANTTRSYLKWDASSISDQSLNLLPRMETDITIRSSEKILIVDAKYYKSIFSRRMGTEKFHSQNLYQLMNYLWSLKPENGENIGGLLIYPHVDTAVKHRYKINGFDIGLCTVNLGQEWPCIHQELLDIFDEYLK
notes: McrC, endonuclease of the McrBC restriction system, Escherichia coli; Dimer in the complex; Chain N of PDB 6HZ4 holds only residues 193-343 of the second copy; source: E. coli BL21(AI), purified (Ni-NTA, MonoS)

Key:
MantGMPPNP (GNP) = test: Mant-nucleotide fluorescence time trace (MantGMPPNP + buffer, then protein added); conditions: protein added at about 160 s, signal before protein est. 26000, parent: est. 40000
McrC endonuclease = target: B2; test: cryo-EM structure; McrBΔN and McrC mixed 4:1 with GTP and MgCl2, complex purified by SEC; grids with 4.0 mg/ml McrBΔNC in 10 mM Tris-HCl pH 7.4, 2.0 mM GNP, 0.10 M NaCl, 5.0 mM MgCl2; conditions: both partners purified
[1] = target: the molecule itself; test: as above
[2] = value is the mean of the trace after addition, read off a plot

Molecule: McrB (wild type) (from UniProt P15005) R349A
- response (MantGMPPNP (GNP); trace hidden under R348A, which the legend says it overlaps, read off a …): 28000 CPS/µAmps

B1: McrBΔN (McrB construct lacking the first 161 residues; AAA+ domain of McrB) (domain or fragment, Escherichia coli, UniProt P15005 162-459, looked up)
chain: MSKTESYCLEDALNDLFIPETTIETILKRLTIKKNIILQGPPGVGKTFVARRLAYLLTGEKAPQRVNMVQFHQSYSYEDFIQGYRPNGVGFRRKDGIFYNFCQQAKEQPEKKYIFIIDEINRANLSKVFGEVMMLMEHDKRGENWSVPLTYSENDEERFYVPENVYIIGLMNTADRSLAVVDYALRRRFSFIDIEPGFDTPQFRNFLLNKKAEPSFVESLCQKMNELNQEISKEATILGKGFRIGHSYFCCGLEDGTSPDTQWLNEIVMTDIAPLLEEYFFDDPYKQQKWTNKLLGDS
notes: McrB, AAA+ GTPase of the McrBC restriction system, Escherichia coli; Forms a hexameric ring in the structure; two rings per tetradecamer; also called McrB∆N; source: E. coli BL21(AI), purified (Ni-NTA, MonoQ, Superdex200)
- binding result (McrC endonuclease): binds

Molecule: B2
- stoichiometry N [1]: 2

Now from value to molecule:

- response (MantGMPPNP (GNP); [2]): 28000 CPS/µAmps
Molecule: McrB (wild type) (from UniProt P15005) R348A

- response (MantGMPPNP (GNP); [2]): 39000 CPS/µAmps
Molecule: McrB (wild type) (from UniProt P15005) E298A
